Experimental data taken from patent publication US20140005098A1 (INSERM INSTITUT NATIONAL DE LA SANT ET DE LA RECHERCHE M …, published 2014).

Target: T1, IGF-II (UniProt P01344 25-91)
T1 construct: also called biotinylated IGF-II (tracer form)
Test: solid-phase displacement of biotinylated IGF-II tracer (Example 5, to which the sentence points); reference: unfused mini-IGFBP-3
Experimental: A solid-phase assay was used to study the binding affinity of mini-IGFBP-3-Fc for IGF-II. In this assay, two binding proteins (mini-IGFBP-3 and mini-IGFBP-3-Fc) were immobilized to a support. They were incubated with the biotinylated IGF-II tracer, and then increasing concentrations of IGF-II were added.

T1 sequence (P01344 25-91 limits assumed): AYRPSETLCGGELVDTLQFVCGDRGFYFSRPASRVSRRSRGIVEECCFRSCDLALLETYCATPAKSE

B1: mini-IGFBP-3-Fc (mini-IGFBP-3-FcIgG1 fusion protein, immunoadhesin) (Fc fusion, human)
chain: GASSAGLGPVVRCEPCDARALAQCAPPPAVCAELVREPGCGCCLTCALSEGQPCGIYTERCGSGLRCQPSPDEARPLQALLDGRGLCVNASAVSGGGSGGSGGSGGSGGETEYGPCRREMEDTLNHLKFLNVLSPRGVHIPNCDKKGFYKKKQCRPSKGRKRGFCWCVDKYGQPLPGYTTKGKEDVHCYSMQSK
notes: range 1-94;range 180-264; also called mini-IGFBP-3 immunoadhesin; not shown: Fc fragment of human IgG1 from the pYM-Fc-IgG1 vector
fold apparent affinity (IC50) against IGFBP-3 derivatives not fused to IgG1 Fc: 7 fold
